Entries after “also recorded” stand apart in the source; their conditions may differ. Like-named read-outs stand apart in the source and are kept apart here.
Columns and labels:
[1] = biological target: T1, common epitope of mutant p53 (FRHSVV; SEQ ID NO:1) (Homo sapiens, UniProt P04637); assay: BIAcore analysis of scFv binding to immobilized FRHSVV-biotin peptide; conditions: FRHSVV-biotin on streptavidin chip, 1:1 Langmuir model, read-out: affinity (binding constant) towards the common epitope (SEQ ID NO:1)
T1 construct: A biotin conjugate of the peptide (FRHSVV)
Description: Binding was determined using the BIACore at the indicated concentrations of antibodies. RU=resonance units. The binding constant was determined using the software that is supplied with the BIAcore instrument (wwwdotBiacoredotcom).
BIAcore Analysis—Real time analysis of the interaction between scFvs and FHRSVV-biotin were determined using BIAcore technology (Biacore AB, Uppsala, Sweden) according to manufacturer's instructions. The peptide FRHSVV-biotin was immobilized on a streptavidin coated sensor chip surface SA. The amount of immobilized peptide was 200 pg/mm^2, the binding was in HBS buffer (10 mM Hepes PH 7.4, 150 mM NaCl, 0.005% Tween-20, 3.4 mM EDTA). Several concentrations of purified scFv (62 nM, 125 nM, 250 nM, 1 μM and 2 μM) were injected at a flow rate of 20 μl/minute. […] Regeneration of the sensor chip was performed using 10 μl of 10 mM HCl. The kinetics parameters of the binding reactions were determined by BIAevaluation 4.0 Software (Biacore AB) using the 1:1 Langmuir model. The dissociation rate (off-rate) constant Kd and the association rate constant (on-rate) Ka were determined simultaneously according to manufacturer's instructions.
The scFv F2 and E6 antibodies display high affinity binding of the mutant epitope—To determine the affinity binding of the isolated scFvs towards the target peptide (SEQ ID NO:1), the BIAcore technology was employed. […]

[2] = biological target: T2, FRHSVV peptide (SEQ ID NO:1; common epitope of mutant p53) (Homo sapiens, UniProt P04637); assay: Binding specificity ELISA of scFvs (FIG. 9)
T2 construct: A biotin conjugate of the peptide (FRHSVV)

[3] = test system: BSA, Streptavidin, amyloid peptide (SEQ ID NO:2), MAP-PrP, PaP; conditions: ELISA, FIG. 9, SEQ ID NOs:2-4

| Molecule | Kd [1] | binding to peptide of the common epitope of mutant p53 (SEQ ID NO:1) [2] | binding to peptide of the common epitope of mutant p53 (SEQ ID NO:1) ([2]; listed as A4) | binding to the other peptides or proteins tested [3] |
| --- | --- | --- | --- | --- |
| A6 scFv: human scFv, SEQ ID NO:115; VL CDRs SEQ ID NOs:60-62 (protein, Single chain Fv) scFv: VQLLESGGGLVQPGGSPRLSCAASGFTFSGYWMHWVRQAPGKGLEWVSEISGSGDSTHYGDSVKGRFTISRDNSKNTLYLQMNSLRAEDTAVYYCARGRNGSLDYWGQGTLVTVSSGSAGGGGSGGGGSGGGGSDIVLTQPPSASGTPGQRVTISCTGGRFNIGDYAVNWYQQLPGKAPKLLIYDNDRRPSGVSDRFSGSKSGTSASLAISGLRSEDEADYYCAAWDDSLDGLVFGGGTQLTV | 23 nM |  |  |  |
| A4 scFv: human scFv clone; VL CDRs SEQ ID NOs:36-38 (protein) scFv: VQLLESGGGLVQPGGSLRLSCAASGFTFSGYWMHWVRQAPGKGLEWVSEISGSGDSTHYGDSVKGRFTISRDNSKNTLYLQMNSLRAEDTAVYYCARGRNGSLDYWGQGTLVTVSSGSAGGGGSGGGGSGGGGSDIVLTQPPSASGTPGQRVTISCTGNSSNIGAGYDVHWYQQLPGKAPKLLIYSNNQRPSGVPDRFSGSKSGTSASLAISGLRSEDEADYYCAAWDDSLSSVVFGGGTKLTV |  | high affinity | highly specific; also recorded: high binding specificity | low affinity |
| B6 scFv: human scFv clone; VL CDRs SEQ ID NOs:27-29 (protein) scFv: VQLLESGGGLVQPGGSLRLSCAASGFTFSGYWMHWVRQAPGKGLEWVSEISGSGDSTHYGDSVKGRFTISRDNSKNTLYLQMNSLRAEDTAVYYCARGRNGSLDYWGQGTLVTVSSGSAGGGGSGGGGSGGGGSDIVLTQPPSASGTPGQRVTISCTGSSANIGAGYDVHWYQQLPGKAPKLLIYDNDKRPSGVPDRFSGSKSGTSASLAISGLRSEDEADYYCAAWDDRLSGVVFGGGTKVTV |  |  |  | low affinity |
